Results: patent publication US20060063208A1 (GENERAL HOSPITAL, published 2006)

Target: T1, DRAGON-Fc fusion protein (DRAGON without its GPI anchor fused to the Fc portion of human IgG) (mouse; human, UniProt Q7TQ33 49-415, limits assumed)
T1 construct: Purified from stably transfected HEK293 cells; also called soluble DRAGON; not shown: Fc portion of the human IgG (vector pIgplus, R&D Systems)
T1 sequence: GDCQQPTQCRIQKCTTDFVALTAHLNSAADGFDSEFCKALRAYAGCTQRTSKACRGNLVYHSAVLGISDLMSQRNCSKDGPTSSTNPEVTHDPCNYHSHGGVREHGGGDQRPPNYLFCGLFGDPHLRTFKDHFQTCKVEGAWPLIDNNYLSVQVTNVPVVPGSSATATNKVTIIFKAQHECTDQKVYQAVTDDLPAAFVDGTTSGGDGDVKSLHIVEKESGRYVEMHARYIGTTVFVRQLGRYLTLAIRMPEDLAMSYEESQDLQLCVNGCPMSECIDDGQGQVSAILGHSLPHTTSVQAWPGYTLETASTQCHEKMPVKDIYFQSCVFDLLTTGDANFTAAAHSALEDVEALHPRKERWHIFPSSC
Test: DRAGON-Fc with [125I]-BMP2 and increasing unlabeled BMP2, capture on protein A plates

B1: BMP-2 (ligand, human, UniProt P12643 283-396, looked up)
chain: QAKHKQRKRLKSSCKRHPLYVDFSDVGWNDWIVAPPGYHAFYCHGECPFPLADHLNSTNHAIVQTLVNSVNSKIPKACCVPTELSAISMLYLDENEKVVLKNYQDMVVEGCGCR
modifications: iodinated with 125I where used as tracer
Work on B1 yielded a Kd of 1.5 nM.
